Entries after “also recorded” stand apart in the source; their conditions may differ. Like-named read-outs stand apart in the source and are kept apart here.
B1: Heparin lyase II: heparin lyase II (heparinase II, no EC number) purified to homogeneity from Flavobacterium heparinum (protein, UniProt C6XZB6 26-772, looked up)
Heparin and heparin-sulfate …: QTKADVVWKDVDGVSMPIPPKTHPRLYLREQQVPDLKNRMNDPKLKKVWADMIKMQEDWKPADIPEVKDFRFYFNQKGLTVRVELMALNYLMTKDPKVGREAITSIIDTLETATFKPAGDISRGIGLFMVTGAIVYDWCYDQLKPEEKTRFVKAFVRLAKMLECGYPPVKDKSIVGHASEWMIMRDLLSVGIAIYDEFPEMYNLAAGRFFKEHLVARNWFYPSHNYHQGMSYLNVRFTNDLFALWILDRMGAGNVFNPGQQFILYDAIYKRRPDGQILAGGDVDYSRKKPKYYTMPALLAGSYYKDEYLNYEFLKDPNVEPHCKLFEFLWRDTQLGSRKPDDLPLSRYSGSPFGWMIARTGWGPESVIAEMKVNEYSFLNHQHQDAGAFQIYYKGPLAIDAGSYTGSSGGYNSPHNKNFFKRTIAHNSLLIYDPKETFSSSGYGGSDHTDFAANDGGQRLPGKGWIAPRDLKEMLAGDFRTGKILAQGFGPDNQTPDYTYLKGDITAAYSAKVKEVKRSFLFLNLKDAKVPAAMIVFDKVVASNPDFKKFWLLHSIEQPEIKGNQITIKRTKNGDSGMLVNTALLPDAANSNITSIGGKGKDFWVFGTNYTNDPKPGTDEALERGEWRVEITPKKAAAEDYYLNVIQIADNTQQKLHEVKRIDGDKVVGVQLADRIVTFSKTSETVDRPFGFSVVGKGTFKFVMTDLLPGTWQVLKDGKILYPALSAKGDDGALYFEGTEGTYRFLR
B2: Heparin lyase III: heparin lyase III (heparitinase EC 4.2.2.8) purified to homogeneity from Flavobacterium heparinum (protein, UniProt Q59289 25-659, looked up)
Heparin-sulfate lyase: QSSSITRKDFDHINLEYSGLEKVNKAVAAGNYDDAAKALLAYYREKSKAREPDFSNAEKPADIRQPIDKVTREMADKALVHQFQPHKGYGYFDYGKDINWQMWPVKDNEVRWQLHRVKWWQAMALVYHATGDEKYAREWVYQYSDWARKNPLGLSQDNDKFVWRPLEVSDRVQSLPPTFSLFVNSPAFTPAFLMEFLNSYHQQADYLSTHYAEQGNHRLFEAQRNLFAGVSFPEFKDSPRWRQTGISVLNTEIKKQVYADGMQFELSPIYHVAAIDIFLKAYGSAKRVNLEKEFPQSYVQTVENMIMALISISLPDYNTPMFGDSWITDKNFRMAQFASWARVFPANQAIKYFATDGKQGKAPNFLSKALSNAGFYTFRSGWDKNATVMVLKASPPGEFHAQPDNGTFELFIKGRNFTPDAGVFVYSGDEAIMKLRNWYRQTRIHSTLTLDNQNMVITKARQNKWETGNNLDVLTYTNPSYPNLDHQRSVLFINKKYFLVIDRAIGEATGNLGVHWQLKEDSNPVFDKTKNRVYTTYRDGNNLMIQSLNADRTSLNEEEGKVSYVYNKELKRPAFVFEKPKKNAGTQNFVSIVYPYDGQKAPEISIRENKGNDFEKGKLNLTLTINGKQQLVLVP

Key:
[1] = Temperature stability of lyase activity; type: physicochemical; conditions: for time in which 80% of activity was lost: protein 650 ng/ml
Experimental: Lyase assay stock solutions were prepared in the appropriate buffer and placed in water baths at the following temperatures: heparin lyase I at 30° C., heparin lyase II at 35° C., and heparin lyase III at both 35° and 40° C. […]

[2] = Heparin lyase activity assay (change of absorbance at 232 nm), heparan sulfate as substrate; type: biochemical; conditions: for Unit/mg (specific activity): final GPC-HPLC purification step, acting on heparan sulfate; for average number of sites acted at in the heparan sulfate polymer: final level of depolymerization, 24 h; for initial activity in six buffers (Tris-HCl, sodium phosphate, HEPES, MOPS, TES, BTP-HCl): 50 mM buffer at optimum pH; for temperature for maximum activity: 50 mM sodium phosphate at optimum pH, 15-55° C.; for optimum temperature (summary): activity greater at higher temperatures but stability reduced; for Vmax: optimized conditions; for pH optimum for activity: on heparan sulfate; for specific activity: purified lyase, toward heparan sulfate
Experimental: The spectrophotometer was adjusted to the optimum temperature of the particular lyase being assayed. […] A measured quantity of lyase was added, bringing the final volume to 400 μl and the cuvette was gently mixed. The microcuvette was then immediately returned to the spectrophotometer and the change of absorbance at 232 nm was measured at 10 seconds intervals over 3 min. […] The specific activity was then calculated by dividing the micromoles of product produced per minute by the milligrams of protein in the cuvette. […] G., and Linhardt, R. J. (1989) Carbohydr. Res. 190, 219-233. Protein concentration was measured by the Bradford assay, Bradford, M. M. (1976) Anal. Biochem. 72, 248-254, based on a bovine serum albumin standard curve. […] The activities of each lyase (I acting on heparin, II acting on both heparin and heparan sulfate, and III acting on heparan sulfate) were then determined at different pH values. The buffer giving optimum activity for each heparin lyase was selected by testing buffers with buffering capacity near the pH optima calculated in the previous experiments. These buffers were: Tris-HCl, sodium phosphate, HEPES, MOPS, TES, and BTP-CHl. […] The heparin lyase assay solutions were made by diluting enzyme in 50 mM sodium phosphate buffer adjusted to the appropriate pH as previously described. Heparin lyase activity was determined in each buffer. Activity was assayed both immediately after addition to each buffer and following incubation for 24 h at 37° C. The salt concentration for optimum activity was investigated. Sodium chloride, potassium chloride, and sodium and potassium acetate were used to differentiate between ionic strength and specific ion affects. […] The temperature was adjusted in a temperature-regulated spectrophotometer and equilibrated for 10 min before the assay was started. Michaelis-Menten constants were determined using the optimized conditions. The final absorbance value for total depolymerization was divided by 20 to find a value that represented 5% reaction completion. The purified lyase preparations were diluted so that 5% of total depolymerization would be reached only at the end of a 3-min assay. The reaction velocities at specific molar concentrations for each lyase and their substrates were used for kinetic analysis using EZ-FIT hyperbolic curve-fitting program of […]. (1988) Anal. Biochem. 174, 437-447). Substrate solutions were prepared from 50 mg/ml heparin and 40 mg/ml for heparan sulfate stock solutions. […] The amount of purified lyase used was sufficient for complete depolymerization of heparin or heparan sulfate substrates within 30 min. The initial rate of depolymerization of each polysaccharide was measured, the reaction was then continued for 24 h, and the final level of polysaccharide depolymerization was assessed by measuring the final absorbance at 232 nm and expressed as percent activity.

[3] = Stability toward storage, freeze thawing and lyophilization; type: physicochemical
Experimental: […] […] These lyase solutions were then divided into 3 equal aliquots, and one of each was subjected to either freeze thawing, lyophilization, or retained as a control in an ice bath. The activities of heparin lyases I-III were determined in the presence and absence of excipients after: 1) brief storage at 4° C.; 2) freezing at −70° C. and thawing; and 3) −70° C. freezing, lyophilization, and reconstituting with an equal volume of cold water.

[4] = Heparin lyase activity: effect of divalent metals and added salt, substrate specificity (each lyase on its substrates); type: biochemical; conditions: for effect of calcium on activity (increase): 10 mM calcium chloride, 50 mM BTP-HCl; for effect of added salt on activity: increasing salt concentration, 0-500 mM
Experimental: The spectrophotometer was adjusted to the optimum temperature of the particular lyase being assayed. A 700 μl quartz microcuvette containing 400 μg of substrate in 50 mM sodium phosphate buffer (containing 100 mM sodium chloride for heparin lyase I) was thermally equilibrated. A measured quantity of lyase was added, bringing the final volume to 400 μl and the cuvette was gently mixed. The microcuvette was then immediately returned to the spectrophotometer and the change of absorbance at 232 nm was measured at 10 seconds intervals over 3 min. The activity was measured from the change of absorbance/unit time using an extinction coefficient of 3800 M^−1 for products. The specific activity was then calculated by dividing the micromoles of product produced per minute by the milligrams of protein in the cuvette. The molecular weights used for heparin, heparan sulfate, and the chondroitin sulfates were 14,000, 20,000 and 25,000, respectively, Rice, K. G., and Linhardt, R. J. (1989) Carbohydr. Res. 190, 219-233. Protein concentration was measured by the Bradford assay, Bradford, M. M. (1976) Anal. Biochem. 72, 248-254, based on a bovine serum albumin standard curve.
BTP-HCl buffer (50 mM) was prepared containing either 10 mM calcium chloride, 10 μM or 1 mM copper (II) chloride, 10 μM and 1 mM mercury (II) chloride, and 1 mM zinc (II) chloride. Each solution was adjusted to the optimum pH for the lyase being tested, and the activity of the heparin lyases was measured in the presence and absence of divalent metals.
The salt concentration for optimum activity was investigated. Sodium chloride, potassium chloride, and sodium and potassium acetate were used to differentiate between ionic strength and specific ion affects. Added salt concentrations varied between 0 and 500 mM and were prepared in 50 mM sodium phosphate buffer after which the pH was adjusted to each enzyme's optimum and the heparin lyase activity was measured.
Each heparin lyase was added to a solution of complex polysaccharides (1 mg/ml) under optimized assay conditions, and the reaction was monitored at 232 nm for 30 min. The amount of purified lyase used was sufficient for complete depolymerization of heparin or heparan sulfate substrates within 30 min. The initial rate of depolymerization of each polysaccharide was measured, the reaction was then continued for 24 h, and the final level of polysaccharide depolymerization was assessed by measuring the final absorbance at 232 nm and expressed as percent activity.

[5] = heparan sulfate, II: 35° C., pH 6.9, III: 35° C., pH 7.6, value ± standard error, read-out: Km(app)
[6] = heparan sulfate, value ± standard error
[7] = with heparan sulfate, read-out: Km (Michelis-Menton constant, summary)

| Molecule | Unit/mg (specific activity) [2] [Unit/mg] | average number of sites acted at in the heparan sulfate polymer [2] [sites] | initial activity in six buffers (Tris-HCl, sodium phosphate, HEPES, MOPS, TES, BTP-HCl) ([2]; heparan sulfate) | temperature for maximum activity ([2]; heparan sulfate) [°C] | Km [2, 5] [µM] | optimum temperature (summary) ([2]; heparan sulfate) [°C] | Vmax [2, 6] [μmol/min mg protein] | pH optimum for activity [2] | specific activity [2] [units/mg] | Km (Michelis-Menton constant, summary) ([2]; with heparan sulfate) [mg/mL] | V(max) (summary) ([2]; with heparan sulfate) | Km [2, 7] [µM] | substrates acted on [4] | effect of calcium on activity (increase) [4] | effect of added salt on activity [4] | other results |
| --- | --- | --- | --- | --- | --- | --- | --- | --- | --- | --- | --- | --- | --- | --- | --- | --- |
| B1 | 36.5 | 25 | marked reduction of activity in MOPS, TES, and HEPES | 40 | 11.2 ± 2.18 | 35 | 28.6 ± 1.26 | 6.9 | 36.5 | 0.869 | 46.95 | 43.4 | act on both heparin and heparan sulfate | dramatically reduced | decrease in activity; also recorded: decreases | activity retained ([1]; 25 h at 35° C., protein 1-2 μg/ml, on both heparin and heparan sulfate): 70%; initial rate on heparan sulfate relative to heparin [2]: 1.7 times; activity retained ([3]; under all storage conditions): greater than 75%; effect of divalent metal ions on activity (all metals tested) ([4]; acting on both heparin and heparan sulfate): inhibition by all of the metals tested except for 10 μM copper; effect of added salt on activity ([4]; listed as heparinase II): not observed |
| B2 | 63.5 | 20 | only slight differences in activity | 45 | 29.4 ± 3.16 | 35 | 141 ± 3.88 | 7.6 | 63.5 | 0.780 | 277.01 | 110 | acts only on heparan sulfate | 20% | decrease in activity; also recorded: decreases | time in which 80% of activity was lost ([1]; 35° C.): 3.5 h; time in which 80% of activity was lost ([1]; 40° C.): 0.5 h; activity retained ([3]; absence of excipient, stored at 4° C.): retains most of its activity; retention of activity ([3]; addition of 5% lactose): destabilizes; activity lost ([3]; on freeze-thawing or freeze-drying): 70-80%; increase of recovered activity ([3]; presence of BSA): 20-25%; effect of copper on activity ([4]; 10 μM copper (II) chloride): unaffected; effect of mercury on activity ([4]; 10 μM mercury (II) chloride): unaffected; effect of copper on activity ([4]; 1 mM copper (II) chloride): inhibited; effect of mercury on activity ([4]; 1 mM mercury (II) chloride): inhibited; effect of zinc on activity ([4]; 1 mM zinc (II) chloride): inhibited; effect of added salt on activity ([4]; listed as heparinase III): not observed |
